Measured values: patent publication US20200339648A1 (University of Washington, published 2020)

Legend:
[1] = target: T1, human IL-2Rβγc on human cells (YT-1 NK cells) (human, UniProt P14784 27-551; P31785 23-369); test: cell-based or functional assay
T1 sequence (looked up) 1: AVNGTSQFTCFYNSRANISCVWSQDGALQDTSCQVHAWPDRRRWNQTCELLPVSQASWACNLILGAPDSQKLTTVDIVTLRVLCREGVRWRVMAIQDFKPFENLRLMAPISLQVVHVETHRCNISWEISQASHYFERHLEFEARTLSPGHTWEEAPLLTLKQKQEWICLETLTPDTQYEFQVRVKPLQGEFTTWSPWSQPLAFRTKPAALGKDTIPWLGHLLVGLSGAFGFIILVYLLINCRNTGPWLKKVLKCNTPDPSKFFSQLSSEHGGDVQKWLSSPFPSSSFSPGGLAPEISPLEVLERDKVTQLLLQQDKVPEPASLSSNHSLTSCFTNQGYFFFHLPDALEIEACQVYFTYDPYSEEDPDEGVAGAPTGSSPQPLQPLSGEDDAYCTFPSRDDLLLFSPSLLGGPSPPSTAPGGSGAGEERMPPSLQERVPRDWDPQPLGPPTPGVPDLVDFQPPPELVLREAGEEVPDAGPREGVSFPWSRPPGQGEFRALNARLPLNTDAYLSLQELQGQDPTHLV
T1 sequence (looked up) 2: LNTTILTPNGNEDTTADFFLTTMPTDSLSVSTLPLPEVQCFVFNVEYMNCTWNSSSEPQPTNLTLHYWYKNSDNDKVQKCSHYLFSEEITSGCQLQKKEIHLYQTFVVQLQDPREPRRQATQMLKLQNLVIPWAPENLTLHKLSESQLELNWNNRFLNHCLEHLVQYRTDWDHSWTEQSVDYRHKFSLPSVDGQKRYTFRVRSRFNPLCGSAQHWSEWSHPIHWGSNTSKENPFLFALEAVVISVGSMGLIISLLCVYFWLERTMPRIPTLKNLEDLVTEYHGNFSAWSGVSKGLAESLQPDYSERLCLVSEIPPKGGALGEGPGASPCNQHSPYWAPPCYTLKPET

[2] = target: T2, mouse IL-2Rβγc on murine cells (CTLL-2 T cells, primary CD4+ T cells) (mouse, UniProt P16297 27-539; P34902 23-369); test: cell-based or functional assay
T2 sequence (looked up) 1: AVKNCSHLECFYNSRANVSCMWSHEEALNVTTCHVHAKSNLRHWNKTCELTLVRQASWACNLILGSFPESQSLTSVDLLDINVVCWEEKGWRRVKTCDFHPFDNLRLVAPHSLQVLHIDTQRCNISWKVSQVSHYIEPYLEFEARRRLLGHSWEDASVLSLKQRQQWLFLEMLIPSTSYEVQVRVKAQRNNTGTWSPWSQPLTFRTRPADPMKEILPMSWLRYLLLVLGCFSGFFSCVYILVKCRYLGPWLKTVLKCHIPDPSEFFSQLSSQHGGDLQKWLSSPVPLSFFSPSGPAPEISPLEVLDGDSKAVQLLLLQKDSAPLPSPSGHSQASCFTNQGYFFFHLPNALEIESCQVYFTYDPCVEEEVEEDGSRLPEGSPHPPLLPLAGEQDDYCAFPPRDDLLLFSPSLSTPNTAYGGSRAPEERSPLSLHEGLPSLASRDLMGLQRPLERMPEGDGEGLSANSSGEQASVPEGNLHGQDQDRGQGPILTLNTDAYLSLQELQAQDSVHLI
T2 sequence (looked up) 2: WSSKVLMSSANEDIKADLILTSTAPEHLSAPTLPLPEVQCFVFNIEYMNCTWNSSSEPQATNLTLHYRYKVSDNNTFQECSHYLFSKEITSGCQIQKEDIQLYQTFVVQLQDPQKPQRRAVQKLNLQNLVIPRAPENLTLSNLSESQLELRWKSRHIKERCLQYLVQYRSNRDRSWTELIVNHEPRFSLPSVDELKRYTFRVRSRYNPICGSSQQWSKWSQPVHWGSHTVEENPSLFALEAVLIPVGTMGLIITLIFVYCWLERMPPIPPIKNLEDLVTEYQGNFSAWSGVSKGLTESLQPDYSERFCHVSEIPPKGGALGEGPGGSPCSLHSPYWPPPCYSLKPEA

[3] = target: T3, human IL-2 receptor β subunit (hIL-2Rβ) (human, UniProt P14784 27-240, biotin on the C-terminal biotin acceptor peptide); test: SPR, equilibrium titration; biotinylated IL-2Rβ on streptavidin chip
T3 construct: Biotinylated and immobilised on streptavidin; also called HsIL-2Rβ; human IL-2Rβ
T3 sequence: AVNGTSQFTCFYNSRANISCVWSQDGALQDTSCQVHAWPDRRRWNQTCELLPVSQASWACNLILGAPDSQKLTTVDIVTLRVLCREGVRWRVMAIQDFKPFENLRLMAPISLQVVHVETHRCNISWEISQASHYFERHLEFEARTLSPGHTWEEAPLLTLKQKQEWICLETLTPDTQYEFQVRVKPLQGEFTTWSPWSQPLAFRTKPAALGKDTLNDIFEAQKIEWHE

[4] = target: T4, mouse IL-2 receptor β subunit (mIL-2Rβ) (mouse, UniProt P16297 27-240, biotin on the C-terminal biotin acceptor peptide); test: as above
T4 construct: extracellular domain; Biotinylated form for SPR; also called MmIL-2Rβ; murine IL-2Rβ
T4 sequence: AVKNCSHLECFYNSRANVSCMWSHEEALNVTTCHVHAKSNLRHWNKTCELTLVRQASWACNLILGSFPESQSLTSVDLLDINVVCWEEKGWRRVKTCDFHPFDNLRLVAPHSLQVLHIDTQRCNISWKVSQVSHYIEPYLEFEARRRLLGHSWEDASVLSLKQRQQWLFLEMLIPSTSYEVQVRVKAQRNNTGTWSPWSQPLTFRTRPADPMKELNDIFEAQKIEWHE

B1: mouse interleukin-2 (mIL-2) (ligand, UniProt P04351 21-169, looked up)
chain: APTSSSTSSSTAEAQQQQQQQQQQQQHLEQLLMDLQELLSRMENYRNLKLPRMLTFKFYLPKQATELKDLQCLEDELGPLRHVLDLTQSKSFQLEDAENFISNIRVTVVKLKGSDNTFECQFDDESATVVDFLRRWIAFCQSIISTSPQ
notes: range 1-149; Baculovirus expression for SPR; also called MmIL-2; mouse IL-2
EC50 (CD25-) pSTAT5p, human NK (YT, CD25-) cells [1]: 39 nM | EC50 (CD25+) pSTAT5, murine T (CTLL-2, CD25+) cells [2]: 3 pM | Kd [3]: 4950 nM | Kd [4]: 1500 nM

B2: G2_neo2_40_1F_dsn36 (designed binder)
chain: PKKKIQLLAEHALLDALMILNIVKTNSQNAEEKLEDYASNVEVILEEIARLMESGDQKDEAEKAKRMKEWMKRIKTTASEDEQEEMANRIITLLQSWIFS
notes: E. coli, N-terminal 6xHis tag and thrombin site
EC50 (CD25-) pSTAT5p, human NK (YT, CD25-) cells [1]: 0.12 nM | EC50 (CD25+) pSTAT5, murine T (CTLL-2, CD25+) cells [2]: 1.36 nM | Kd [3]: 27.6 nM | Kd [4]: 2430 nM

B3: G1_neo2_40_1F (designed binder)
chain: STKKTQLLAEHALLDALMMLNLLPEPNEKLNRIITTMQSWIFTGKIDGDGAQELAKEVEELEQEHEKRGIDVEDYASNLKVILLELA
notes: also called G1_ne02_40_1F
EC50 (CD25-) pSTAT5p, human NK (YT, CD25-) cells [1]: 90 pM | EC50 (CD25+) pSTAT5, murine T (CTLL-2, CD25+) cells [2]: 0.2 nM | Kd [3]: 2.6 nM | Kd [4]: 486 nM
